Experimental findings from patent US20240271152A1, “ENHANCING NITROGEN FIXATION WITH FUN” (Aarhus Universitet, published 2024) are described below.

In data set [1] the target is T1, FUN DNA-binding domain (bZIP) (Lotus japonicus).
T1 chain: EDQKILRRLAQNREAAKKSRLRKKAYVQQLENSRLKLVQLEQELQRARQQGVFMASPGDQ
Description: EMSA; same buffer, 37 C; printed reverse strand identical to forward. The settings on record: chain copies: 2; label: 5' 6-FAM. How it is done: (§1) The purified FUN DNA binding domain (residues 178-237) was incubated with the probes at 37° C. for 60 min in EMSA buffer (25 mM Tris-HCl pH8.0, 80 mM NaCl, 35 mM KCl, 5 mM MgCl₂). After incubation, the reaction mixture was electrophoresed in 6% native polyacrylamide gel and then labelled DNA was detected with the Typhoon scanner (Fujifilm). Probes without 6-FAM-label served as competitors, while probes with mutation in the core binding sites (TGACG) served as mutants.
(§2) The promoter region of Nrt2.1 had four putative FBSs (P1-P4), the promoter region of Ho1 had two FBSs (P1 and P2), the promoter region of NAC094 had one FBS (P1), the promoter region of Nrt3.1 had three FBSs (P1, P2, and P3), and the promoter region of AS1 had one FBS (P1), all of which are illustrated in FIG. 2C. EMSA was conducted to test whether the FUN DNA-binding domain bound probes representing the FBSs.

Data set [2] deals with the molecule itself. Description: confocal imaging of FUN-GFP in N. benthamiana leaves infiltrated with 500 µM ZnCl2.
Data set [3] concerns the target T1, FUN DNA-binding domain (bZIP). Description: EMSA; same buffer, 37 C. The note with it: chain copies: 2; label: 5' 6-FAM. How it is done: as §1, §2
Data set [4] has the same target. Description: EMSA; 25 mM Tris pH 8.0, 80 mM NaCl, 35 mM KCl, 5 mM MgCl2, 37 C. The note with it: chain copies: 2; label: 5' 6-FAM. How it is done:
as §1, §2

B1: AS1 P1 (dsDNA)
DNA 1: CATGTGGGCTTTTGACGAAGGTTCAAGTAG
DNA 2: CTACTTGAACCTTCGTCAAAAGCCCACATG
As for B1, the binding result in data set [1] is listed as “binds”.

B2: FUN-GFP (FUN fused to green fluorescent protein) (other)
chain: MQGFKTAQGNSHLYCHPSSFLLRGDDTSRNHTRFSDLGELQHSSNIFQQDDAVDLSSSNLPCSMYSVKSCNVVGGGSNMQYGTLNTNLGSAEIVSTGAGCLETGQQLMYHKEISMATMPMGNGHVENWADSSGMADNSQQTDDTSTDVDTDDKIQSNRDKRGTHMVVHSRDQTKSKPEDQKILRRLAQNREAAKKSRLRKKAYVQQLENSRLKLVQLEQELQRARQQGVFMASPGDQSHLAVGGANGASAFDMEYAHWVDEHQRLLTDLRSALNSQMGDNELHLLVDGVMAHYDELFRLKSLGAKADVFHMHSGLWKTPAERCFMWLGGFRSTELLKIVKNHLEPLTEPQLMGIDNLLRCAQQGEDALTQGMEALQQALVDTLSSTSLGPAGAGNVADYMGQMAIAMGKLATLESFLHSADLVKQQTLQQLQRILTTRQMARALLVRNDYISRLRALSSLWLARPRESSVMSSLPPSNIE
notes: Expressed inside plant cells, where it is nuclear (N. benthamiana leaves, Lotus hairy roots), not on the cell surface; also called pro35S:FUN-GFP; proUbi:FUN-GFP; not shown: eGFP fused to the FUN CDS
Consider B2, for which the binding result in data set [2] was “binds”.

B3: NRT3.1 P2 (dsDNA)
DNA 1: GGTTTTTATTTTTGACCTCAGAGGGGATCG
DNA 2: CGATCCCCTCTGAGGTCAAAAATAAAAACC
Regarding B3, the binding result in data set [3] is given as “binds”.

B4: NAC094 P1 (dsDNA)
DNA 1: AGGAGAGGTTTGTGAGCATCAGCAAAGTGT
DNA 2: ACACTTTGCTGATGCTCACAAACCTCTCCT
As for B4, the binding result in data set [3] is given as “binds”.

B5: NRT3.1 P1 (dsDNA)
DNA 1: CGTTCATTAATATGACATCAGAATTTCTCT
DNA 2: AGAGAAATTCTGATGTCATATTAATGAACG
As for B5, in data set [3], the binding result is “binds”.

B6: NRT2.1 P1 (dsDNA)
DNA 1: ACAAGTAGCTTATGACGTACGACATATAGT
DNA 2: ACTATATGTCGTACGTCATAAGCTACTTGT
For B6, the binding result in data set [4] is reported as “binds”.

B7: NRT2.1 P4 (dsDNA)
DNA 1: AGATTTAAGTTGACGTATTAATGACAATGA
DNA 2: TCATTGTCATTAATACGTCAACTTAAATCT
On to B7, for which, in data set [3], the binding result is on record as “binds”.

B8: HO1 P1 (dsDNA)
DNA 1: TGTAATAACTTGTGAGCGAAGCAGGGATCC
DNA 2: GGATCCCTGCTTCGCTCACAAGTTATTACA
Turning to B8, the binding result in data set [3] was “binds”.

B9: HO1 P2 (dsDNA)
DNA 1: TCGAGCCTGCCTTGAGCTTGTCTTCTCCAT
DNA 2: ATGGAGAAGACAAGCTCAAGGCAGGCTCGA
Take B9: the binding result in data set [3] is recorded as “binds”.

B10: NRT3.1 P3 (dsDNA)
DNA 1: AGACCTATTTTCTGACTCAATGTAGAGGGT
DNA 2: ACCCTCTACATTGAGTCAGAAAATAGGTCT
As to B10, the binding result in data set [3] is given as “binds”.
